Biological target: T1, hen egg-white lysozyme (hen, UniProt P00698 19-147)
T1 construct: mature; also called HEL; target substance
Assay: SPR (BIAcore X), HEL amine-coupled to CM5 chip, polypeptide at 50, 100 and 200 nM in PBS-T
Protocol: The strains are cultured at 30° C. for 16 hours in ampicillin (100 μg/ml)-selective LB medium. IPTG is added thereto at the final concentration of 1 mM, followed by additional 16-hour culture to induce protein expression. The bacterial cells collected by centrifugation are subjected to osmotic pressure treatment (the bacterial cells are mixed with 0.5 M sucrose solution and supplemented with a 5-fold volume of pure water) and disrupted by French press to obtain as soluble fractions, the proteins of interest present in the E. coli periplasms. Next, the functional polypeptide chains are purified with HEL columns (HEL is adsorbed and immobilized onto CNBr-activated Sepharose 4B (Code No. 17-0430-01 (Amersham)); the immobilization is performed according to the accompanying protocol). The binding ability between the functional polypeptides and the target substances (HEL) is evaluated by using BIAcore (registered trademark) X (SPR measurement apparatus). […] Next, the molarity of the functional polypeptide chain is adjusted to 50 nM, 100 nM and 200 nM for the first functional polypeptide chain (HyHEL10 scFv-(G4S)3-WinZipA1), the second functional polypeptide chain (D1.3 scFv-(G4S)3-WinZipB1) and a 1:1 mixture of the first and second functional polypeptide chains by using PBS-T (0.1% Tween 20) buffer. […]

T1 sequence (P00698 19-147): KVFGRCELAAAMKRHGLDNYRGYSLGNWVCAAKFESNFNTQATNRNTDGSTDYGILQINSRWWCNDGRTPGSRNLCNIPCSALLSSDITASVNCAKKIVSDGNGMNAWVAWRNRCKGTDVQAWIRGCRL

B1: HyHEL10 scFv-(G4S)3-WinZipA1 (scFv)
scFv: DIQLQESGPSLVKPSQTLSLTCSVTGDSITSDYWSWIRKFPGNRLEYMGYVSYSGSTYYNPSLKSRISITRDTSKNQYYLDLNSVTTEDTATYYCANWDGDYWGQGTLVTVSAGGGGSGGGGSGGGGSDIVLTQSPATLSVTPGNSVSLSCRASQSIGNNLHWYQQKSHESPRLLIKYASQSISGIPSRFSGSGSGTDFTLSINSVETEDFGMYFCQQSNSWPYTFGGGTKLIITAGGGGSGGGGSGGGGSTVAQLEEKVKTLRAQNYELKSRVQRLREQVAQLA
notes: Secreted from E. coli with the pelB signal of a modified pET-20b(+) vector and purified on a HEL column; also called first functional polypeptide chain; first polypeptide chain
B1 was tested, and the Kd was 300 pM.
